{"source": "patent US20250127885A1", "key": {"[1]": {"biological_target": "HCMV viral Fcγ receptors (vFcγRs) on AD169-infected cells", "assay": "cell-based or functional assay"}, "[2]": {"biological_target": "HCMV viral Fcγ receptors (vFcγRs) on AD169-infected cells", "assay": "flow cytometry on AD169-infected fibroblasts, 67 nM antibody"}, "[3]": {"biological_target": "HCMV viral Fcγ receptors (vFcγRs) on AD169-infected cells", "assay": "flow cytometry, 67 nM antibody on AD169-infected fibroblasts, anti-huFc detection"}, "[4]": {"biological_target": "HCMV glycoprotein B (gB) on HCMV-infected MRC5 fibroblasts (human cytomegalovirus (HCMV), strain AD169) (UniProt P06473)", "assay": "flow cytometry on AD169-infected fibroblasts, 67 nM antibody"}, "[5]": {"biological_target": "human CD16A ectodomain fused to mouse CD3 zeta, on BW5147 reporter cells (human; mouse) (UniProt P08637)", "sequence (P08637 other isoform, or with tags, fused parts or gaps limits assumed)": "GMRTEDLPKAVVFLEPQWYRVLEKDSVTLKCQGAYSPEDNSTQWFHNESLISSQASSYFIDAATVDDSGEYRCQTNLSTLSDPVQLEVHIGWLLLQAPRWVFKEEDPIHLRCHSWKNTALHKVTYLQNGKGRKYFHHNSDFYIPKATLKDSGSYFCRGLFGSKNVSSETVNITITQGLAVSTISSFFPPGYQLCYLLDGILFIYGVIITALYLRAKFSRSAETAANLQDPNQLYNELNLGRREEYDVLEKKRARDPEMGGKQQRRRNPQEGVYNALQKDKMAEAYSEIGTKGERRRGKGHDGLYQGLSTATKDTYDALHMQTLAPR", "assay": "cell-based or functional assay"}, "[6]": {"biological_target": "HCMV glycoprotein B (gB) on HCMV-infected MRC5 fibroblasts (human cytomegalovirus (HCMV), strain AD169) (UniProt P06473)", "assay": "flow cytometry on AD169-infected MRC5 cells, anti-human Fcγ-AF647"}, "[7]": {"biological_target": "HCMV glycoprotein B (gB) on HCMV-infected MRC5 fibroblasts (human cytomegalovirus (HCMV), strain AD169) (UniProt P06473)", "assay": "flow cytometry on AD169-infected fibroblasts, 67 nM antibody; gB and vFcγRs both capture"}, "[8]": {"biological_target": "HCMV glycoprotein B (gB) on HCMV-infected MRC5 fibroblasts (human cytomegalovirus (HCMV), strain AD169) (UniProt P06473)", "assay": "flow cytometry, 67 nM antibody on ΔΔΔ-infected fibroblasts (vFcγRs deleted), anti-huFc detection"}, "[9]": {"biological_target": "HCMV glycoprotein B (gB) on HCMV-infected MRC5 fibroblasts (human cytomegalovirus (HCMV), strain AD169) (UniProt P06473)", "assay": "flow cytometry, 67 nM antibody on AD169-infected fibroblasts, anti-huFc detection (vFcγRs also present)"}, "[10]": {"biological_target": "HCMV glycoprotein B (gB) on HCMV-infected MRC5 fibroblasts (human cytomegalovirus (HCMV), strain AD169) (UniProt P06473)", "assay": "flow cytometry on AD169-infected fibroblasts, 67 nM antibody with soluble gp34-M (100 nM) and/or t-gp68 (2000 nM)"}, "[11]": {"biological_target": "soluble HCMV gp34 ectodomain with C150S (gp34-M) (human cytomegalovirus (HCMV), strain AD169) (UniProt P16809)", "assay": "ELISA, gB coated at 2 ug/mL, antibody 100 ug/mL, Gp34 diluted from 50 ug/mL, anti-flag-M2-HRP 1/1000 (table on the sheet)"}, "[12]": {"biological_target": "soluble truncated HCMV gp68 ectodomain (t-gp68) (human cytomegalovirus (HCMV)) (UniProt F5HC14)", "assay": "ELISA, gB coated at 2 ug/mL, antibody 100 ug/mL, Gp68 diluted from 50 ug/mL, anti-flag-M2-HRP 1/1000 (table on the sheet)"}, "[13]": {"biological_target": "human CD16A F158 allotype (human) (UniProt P08637)", "sequence (P08637 17-208 limits assumed)": "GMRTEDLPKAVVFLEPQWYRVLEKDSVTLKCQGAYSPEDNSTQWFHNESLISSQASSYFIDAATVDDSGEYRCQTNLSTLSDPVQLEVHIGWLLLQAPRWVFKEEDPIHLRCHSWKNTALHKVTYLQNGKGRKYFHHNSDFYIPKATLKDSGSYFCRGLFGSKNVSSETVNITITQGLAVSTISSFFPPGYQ", "assay": "BLI (Octet RED96e), steady state; hu4D5 variant on FAB2G tips, CD16A F158 5000-156.25 nM, pH 7.4"}, "[14]": {"biological_target": "biotinylated FcRn (Acro Biosystems) (UniProt P55899)", "sequence (P55899 24-297 limits assumed, chain 1 of 2)": "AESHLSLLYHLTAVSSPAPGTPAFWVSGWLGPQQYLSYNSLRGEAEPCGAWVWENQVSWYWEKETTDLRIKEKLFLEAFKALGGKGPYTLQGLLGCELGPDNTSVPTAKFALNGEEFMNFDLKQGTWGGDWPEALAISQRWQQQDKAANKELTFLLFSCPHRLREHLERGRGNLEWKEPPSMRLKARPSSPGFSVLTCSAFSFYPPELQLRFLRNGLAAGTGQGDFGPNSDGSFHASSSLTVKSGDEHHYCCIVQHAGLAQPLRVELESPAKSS", "sequence (chain, as listed by the source limits assumed, chain 2 of 2)": "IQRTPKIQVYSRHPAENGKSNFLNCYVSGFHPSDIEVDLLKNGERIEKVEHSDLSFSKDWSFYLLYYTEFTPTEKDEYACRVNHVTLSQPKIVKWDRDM", "assay": "BLI (Octet RED96e), steady state; biotinylated FcRn on SA tips, hu4D5 Fc variant 1000-31.25 nM, pH 6.0"}, "[15]": {"biological_target": "soluble HCMV gp34 ectodomain with C150S (gp34-M) (human cytomegalovirus (HCMV), strain AD169) (UniProt P16809)", "assay": "SPR (Biacore X100), kinetic KD; gp34-M captured by anti-strep Fab on CM5, hu4D5 Fc variant injected; 1:1 fit"}, "[16]": {"biological_target": "soluble truncated HCMV gp68 ectodomain (t-gp68) (human cytomegalovirus (HCMV)) (UniProt F5HC14)", "assay": "SPR (Biacore X100), equilibrium (steady state) KD; t-gp68 captured by anti-strep Fab, hu4D5 Fc variant injected"}, "[17]": {"biological_target": "soluble truncated HCMV gp68 ectodomain (t-gp68) (human cytomegalovirus (HCMV)) (UniProt F5HC14)", "assay": "SPR (Biacore X100), kinetic KD; t-gp68 captured by anti-strep Fab on CM5, hu4D5 Fc variant injected; 2:1 fit, first kinetic constants"}, "[18]": {"biological_target": "HCMV AD169 gpRL12 ectodomain displayed on ExpiCHO cells (human cytomegalovirus (HCMV), strain AD169) (UniProt P16810)", "assay": "flow cytometry, ExpiCHO cells displaying the ectodomain, goat anti-Fc gamma-AF647, 4PL fit; EC50 unit inferred, x axis IgG (nM)"}, "[19]": {"biological_target": "HCMV Merlin gpRL12 ectodomain displayed on ExpiCHO cells (human cytomegalovirus (HCMV), strain Merlin) (UniProt Q6SWD0)", "assay": "flow cytometry, ExpiCHO cells displaying the ectodomain, goat anti-Fc gamma-AF647, 4PL fit; EC50 unit inferred, x axis IgG (nM)"}, "[20]": {"biological_target": "HCMV Merlin gpRL13 ectodomain displayed on ExpiCHO cells (human cytomegalovirus (HCMV), strain Merlin) (UniProt Q6SWC9)", "assay": "flow cytometry, ExpiCHO cells displaying the ectodomain, goat anti-Fc gamma-AF647, 4PL fit; EC50 unit inferred, x axis IgG (nM)"}, "[21]": {"biological_target": "HCMV gp34 ectodomain displayed on ExpiCHO cells (human cytomegalovirus (HCMV)) (UniProt P16809)", "assay": "flow cytometry, ExpiCHO cells displaying the ectodomain, goat anti-Fc gamma-AF647, 4PL fit; EC50 unit inferred, x axis IgG (nM)"}, "[22]": {"biological_target": "HCMV gp68 ectodomain displayed on ExpiCHO cells (human cytomegalovirus (HCMV)) (UniProt P16739)", "assay": "flow cytometry, ExpiCHO cells displaying the ectodomain, goat anti-Fc gamma-AF647, 4PL fit; EC50 unit inferred, x axis IgG (nM)"}, "[23]": {"biological_target": "HCMV Merlin gpRL13 ectodomain displayed on ExpiCHO cells (human cytomegalovirus (HCMV), strain Merlin) (UniProt Q6SWC9)", "assay": "flow cytometry, ExpiCHO cells displaying the ectodomain, hu4D5 Fc variant titrated, goat anti-Fc gamma-AF647"}}, "note": "pEC50, pKd: −log10 of the molar value.", "data": [{"substance": "2B1 control antibody with human IgG1 Fc and an irrelevant Fab", "values": [{"measurement": "internalization by AD169-infected MRC5 (pHrodo, %)", "setting": "[1]", "value": 20, "unit": "%"}, {"measurement": "internalization in the presence of soluble gp34-M, t-gp68, or both (%)", "setting": "[1]", "value": "0 to 5", "unit": "%"}, {"measurement": "percent of cells bound", "setting": "[2]", "value": 40, "unit": "%"}]}, {"substance": "2B1 control antibody with mouse IgG2a Fc and an irrelevant Fab", "values": [{"measurement": "percent of cells bound", "setting": "[2]", "value": 5, "unit": "%"}]}, {"substance": "human IgG1 isotype control antibody", "values": [{"measurement": "internalization by AD169-infected cells (pHrodo, %)", "setting": "[1]", "value": 10, "unit": "%"}, {"measurement": "percent of cells stained", "setting": "[3]", "value": 35, "unit": "%"}]}, {"substance": "SM5-1 (anti-gB) with mouse IgG2a Fc (antibody)", "values": [{"measurement": "percent of cells bound", "setting": "[4]", "value": 60, "unit": "%"}]}, {"substance": "SM5-1 (anti-gB) with wild-type human IgG1 Fc (antibody)", "values": [{"measurement": "NK-92 V158 degranulation (CD107a, % cells), AD169/GFP-infected MRC5, 20 µg/ml", "setting": "[1]", "value": 5, "unit": "%"}, {"measurement": "internalization by AD169-infected MRC5 (pHrodo, %)", "setting": "[1]", "value": 37, "unit": "%"}, {"measurement": "internalization by AD169-infected MRC5 cells (%)", "setting": "[1]", "value": 35, "unit": "%"}, {"measurement": "internalization by AD169-infected cells (pHrodo, %)", "setting": "[1]", "value": 50, "unit": "%"}, {"measurement": "internalization by ΔΔΔ-infected cells (vFcγRs deleted; pHrodo, %)", "setting": "[1]", "value": 7, "unit": "%"}, {"measurement": "internalization in the presence of soluble gp34-M, t-gp68, or both (%)", "setting": "[1]", "value": "0 to 5", "unit": "%"}, {"measurement": "CD16A activation, EC50 (mIL-2 of BW-CD16A-ζ reporter cells), AD169-infected MRC5", "setting": "[5]", "value": 0.0128, "unit": "ng/mL"}, {"measurement": "CD16A activation, EC50 (mIL-2 of BW-CD16A-ζ reporter cells), ΔΔΔ-infected MRC5", "setting": "[5]", "value": 0.00063, "unit": "ng/mL"}, {"measurement": "percent of cells stained", "setting": "[6]", "value": 70, "unit": "%"}, {"measurement": "percent of cells bound", "setting": "[7]", "value": 75, "unit": "%"}, {"measurement": "percent of cells stained", "setting": "[8]", "value": 80, "unit": "%"}, {"measurement": "percent of cells stained", "setting": "[9]", "value": 80, "unit": "%"}, {"measurement": "percent of cells bound", "setting": "[10]", "value": 60, "unit": "%"}, {"measurement": "EC50 (read off the curve)", "setting": "[11]", "value": 200, "unit": "ng/mL"}, {"measurement": "EC50 (read off the curve)", "setting": "[12]", "value": 400, "unit": "ng/mL"}]}, {"substance": "hu4D5 antibody with wild-type human IgG1 Fc", "values": [{"measurement": "pKd", "setting": "[13]", "value": 6.00}, {"measurement": "pKd", "setting": "[14]", "value": 7.22}, {"measurement": "pKd", "setting": "[15]", "value": 8.14}, {"measurement": "pKd", "setting": "[16]", "value": 7.10}, {"measurement": "pKd", "setting": "[17]", "value": 7.16}, {"measurement": "pEC50", "setting": "[18]", "value": 7.13}, {"measurement": "pEC50", "setting": "[19]", "value": 7.70}, {"measurement": "pEC50", "setting": "[20]", "value": 7.26}, {"measurement": "pEC50", "setting": "[21]", "value": 7.40}, {"measurement": "pEC50", "setting": "[22]", "value": 7.92}]}, {"substance": "hu4D5 antibody with G5 Fc (R255Q, S337F)", "values": [{"measurement": "pKd", "setting": "[13]", "value": 6.00}, {"measurement": "pKd", "setting": "[14]", "value": 7.05}, {"measurement": "pKd", "setting": "[15]", "value": 7.48}, {"measurement": "pKd", "setting": "[16]", "value": 6.07}, {"measurement": "pKd", "setting": "[17]", "value": 5.68}, {"measurement": "pEC50", "setting": "[18]", "value": 7.40}, {"measurement": "pEC50", "setting": "[19]", "value": 7.82}, {"measurement": "pEC50", "setting": "[20]", "value": 6.64}, {"measurement": "pEC50", "setting": "[21]", "value": 6.39}]}, {"substance": "hu4D5 antibody with G2 Fc (R255Q, H268L, E294K, Q311L, K334E)", "values": [{"measurement": "pKd", "setting": "[13]", "value": 6.00}, {"measurement": "pKd", "setting": "[14]", "value": 7.30}, {"measurement": "pKd", "setting": "[15]", "value": 6.49}, {"measurement": "pKd", "setting": "[16]", "value": 5.74}, {"measurement": "EC50 (read off the curve)", "setting": "[23]", "value": 30, "unit": "nM"}, {"measurement": "pKd", "setting": "[17]", "value": 5.32}, {"measurement": "pEC50", "setting": "[18]", "value": 7.09}, {"measurement": "pEC50", "setting": "[21]", "value": 6.39}]}]}
